Values quoted from earlier work in paper PMC5860782.

Molecular target: clathrin light chain (Saccharomyces cerevisiae) (UniProt P17891)
Chain of UniProt P17891 (P17891 whole entry): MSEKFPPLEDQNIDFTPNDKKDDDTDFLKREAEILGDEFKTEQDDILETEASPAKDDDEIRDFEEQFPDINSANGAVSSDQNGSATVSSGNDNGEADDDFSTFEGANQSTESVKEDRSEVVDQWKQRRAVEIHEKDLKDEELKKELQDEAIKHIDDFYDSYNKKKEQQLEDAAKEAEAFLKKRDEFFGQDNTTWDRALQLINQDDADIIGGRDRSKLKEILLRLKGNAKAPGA

Kd: 1 nM
Substance: clathrin heavy chain (from UniProt P22137)
